From patent publication US20250277048A1 (Regeneron, published 2025)

Key:
[1] = biological target: T1, human CD40 (hCD40) expressed on cells (human, UniProt P25942 21-277); experiment: cell-based or functional assay
[2] = biological target: T1, human CD40 (hCD40) expressed on cells; experiment: cell-based or functional assay; remark: listed apart in the source
[3] = biological target: T1, human CD40 (hCD40) expressed on cells; experiment: cell-based or functional assay; remark: listed apart in the source
[4] = biological target: T1, human CD40 (hCD40) expressed on cells; experiment: cell-based or functional assay; remark: listed apart in the source
[5] = biological target: T2, Macaca fascicularis CD40 (mfCD40) expressed on HEK293/D9/mfCD40 cells (Macaca fascicularis, UniProt G7PG38 21-278); experiment: flow cytometry, HEK293/D9/mfCD40 cells
T2 construct: whole, on cells; also called monkey CD40
Description: (§1) Cells were washed with 2% FBS (w/v) in 1×PBS (flow cytometry staining buffer) by centrifugation with benchtop Centrifuge 5810R (Eppendorf®, Hamburg, Germany). Cells were incubated for 30 minutes at 4° C. with serial dilutions of following antibodies ranging from 1.7 pM to 100 nM in flow cytometry staining buffer (1) anti-CD40×CD40 bispecific antibodies, or (2) parental anti-CD40 antibodies (bivalent antibodies comprising 2 fragment antigen-binding [Fab] arms identical to one of the two anti-CD40 Fab of bispecific anti-CD40×CD40 antibodies), or (3) anti-CD40×Irrelevant antibodies (bivalent antibodies that incorporate one Fab arm identical to one of anti-CD40 Fab of anti-CD40×CD40 antibodies and another Fab arm specific to an irrelevant antigen, i.e. birch pollen main allergen Bet v1), or (4) human IgG4 isotype control antibodies with Fc mutation. After washing, cell bound antibodies were detected with 2.5 μg/ml Allophycocyanin (APC)-conjugated goat anti-human IgG antibody specific for the Fcγ fragment (Jackson Immunoresearch, West Grove, PA) for 30 minutes at 4° C. Cells were washed and subsequently fixed with 50% solution of Cytofix™ Fixation Buffer (BD, Franklin Lakes, NJ) in flow cytometry staining buffer for 20 minutes at room temperature. Cells were washed and resuspended in flow cytometry staining buffer and stored at 4° C. for downstream flow cytometry analysis.
(§2) Acquisition of fluorescence signals were recorded on the ZE5 Cell Analyzer (Bio-Rad, Hercules, CA) according to the manufacturer's recommended procedure and flow cytometry data analysis was performed using the open-source R packages flowCore, flowStats, flowDensity, ggCyto, and flowAI. Multiplexed samples were deconvoluted and individual cell populations were identified based on their unique CellTrace™ fluorescence signature. APC Median Fluorescence intensity (MFI) was recorded to indicate the binding intensity of each antibody over a range of concentrations. Antibodies with MFI greater than 1500 at the highest tested concentration (100 nM) were classified as specific binders. In addition, direct binding signals (APC MFI) were analyzed as a function of the antibody concentration and data were fitted with a sigmoidal (four-parameter logistic) dose-response model using GraphPad Prism™ software.

[6] = biological target: T1, human CD40 (hCD40) expressed on cells; experiment: cell-based or functional assay; remark: listed apart in the source
[7] = biological target: T1, human CD40 (hCD40) expressed on cells; experiment: cell-based or functional assay; remark: listed apart in the source
[8] = biological target: T3, human CD40 extracellular domain expressed with a C-terminal myc-myc-hexahistidine tag (human); experiment: ELISA blocking of 40 nM hCD40-mmH binding to 9His-hCD40L
T3 construct: also called hCD40-MMH; hCD40-mmH
Excerpt: An ELISA-based blocking assay was developed to determine the ability of C40×CD40 bispecific antibodies to block the binding of the hCD40 monomer to plate-coated hCD40L. The recombinant human CD40-mmH protein (hCD40-MMH; REGN3094; SEQ ID NO: 53) used in the experiments comprises a portion of the human CD40 extracellular domain (amino acids P20-R193) fused to 2×Myc peptide and 6×histadine (SEQ ID NO: 1110) at the C-terminus of human CD40, and the human CD40L (accession #NM_000074.2) with amino acids E108-L261 of the extracellular domain with 9×His-2×(SGGG)-IGER at the N-terminus (9His-hCD40L) was commercially obtained from Biolegend.
In the blocking assay, 9His-hCD40L was passively absorbed at a concentration of 5 μg/mL in PBS on a 96-well microtiter plate overnight at 4° C. […] In a separate 96-well microtiter plate, a fixed amount of 40 nM hCD40-mmH was pre-mixed with one of the following antibodies, at concentrations ranging from 977 pM to 1 μM in PBS+0.5% BSA: (1) CD40×CD40 bispecific antibodies (REGN16431, REGN16432, REGN16634, and REGN16335); (2) parental CD40 mAbs (bivalent antibodies comprising 2 fragment antigen-binding [Fab] arms identical to one of anti-CD40 Fab of CD40×CD40 antibodies); (3) CD40×Irrelevant antibodies (bivalent antibodies that incorporate one Fab arm identical to one of anti-CD40 Fab of CD40×CD40 antibodies and another Fab arm specific to an irrelevant antigen); and (4) human IgG4 with Fc mutation isotype control antibodies (REGN7540 and REGN4513). The fixed concentration of hCD40-mmH was selected to be near the concentration (EC₅₀ value) that generated 50% of the maximal binding to the plate-adhered 9His-hCD40L. After one-hour incubation, the antibody-antigen complexes were transferred to the microtiter plate coated with 9His-hCD40L. After one hour incubation at room temperature, the plates were washed, and plate-bound hCD40-mmH protein was detected with horseradish peroxidase (HRP) conjugated goat anti-c-Myc antibody. The plates were then developed using TMB substrate solution (BD Biosciences) according to the manufacturer's recommended procedure and the absorbance at 450 nm (OD₄₅₀) was measured on a SpectraMax i3×plate reader.

[9] = biological target: T1, human CD40 (hCD40) expressed on cells; experiment: cell-based or functional assay; remark: listed apart in the source
[10] = biological target: T1, human CD40 (hCD40) expressed on cells; experiment: cell-based or functional assay; remark: listed apart in the source
[11] = biological target: T1, human CD40 (hCD40) expressed on cells; experiment: flow cytometry, HEK293/D9/hCD40 cells
Description: as §1, §2

[12] = biological target: T1, human CD40 (hCD40) expressed on cells; experiment: cell-based or functional assay; remark: listed apart in the source
[13] = biological target: T1, human CD40 (hCD40) expressed on cells; experiment: flow cytometry, Ramos 2G6.4C10 cells
Description: as §1, §2

T1 sequence (P25942 21-277): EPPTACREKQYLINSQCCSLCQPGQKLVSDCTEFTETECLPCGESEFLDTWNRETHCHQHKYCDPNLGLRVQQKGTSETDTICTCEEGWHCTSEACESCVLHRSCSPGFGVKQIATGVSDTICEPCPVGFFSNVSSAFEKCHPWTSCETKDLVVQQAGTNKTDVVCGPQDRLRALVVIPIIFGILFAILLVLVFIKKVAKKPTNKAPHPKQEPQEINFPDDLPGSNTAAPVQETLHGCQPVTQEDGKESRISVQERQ
T3 sequence (chain, as listed by the source limits assumed): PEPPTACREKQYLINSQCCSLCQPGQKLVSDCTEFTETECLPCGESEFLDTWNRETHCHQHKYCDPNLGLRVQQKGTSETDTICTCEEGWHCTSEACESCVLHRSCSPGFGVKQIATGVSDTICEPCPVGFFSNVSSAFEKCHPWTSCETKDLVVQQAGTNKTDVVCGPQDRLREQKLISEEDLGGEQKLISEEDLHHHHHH

B1: REGN16334 (bispecific antibody, human IgG4 S228P, kappa)
heavy 1: QLQLQESGPGLVRPSETLSLTCSVSGASMNTNNYYWGWIRQPPGKGLEWIGSGYYNGNTYYNPSLKSRVTISVDTSKNQFSLKLNSVTAADTAVYYCARQTPPRIIGSPNIWGQGTMVTVSSASTKGPSVFPLAPCSRSTSESTAALGCLVKDYFPEPVTVSWNSGALTSGVHTFPAVLQSSGLYSLSSVVTVPSSSLGTKTYTCNVDHKPSNTKVDKRVESKYGPPCPPCPAPGGGGPSVFLFPPKPKDTLMISRTPEVTCVVVDVSQEDPEVQFNWYVDGVEVHNAKTKPREEQFNSTYRVVSVLTVLHQDWLNGKEYKCKVSNKGLPSSIEKTISKAKGQPREPQVYTLPPSQEEMTKNQVSLTCLVKGFYPSDIAVEWESNGQPENNYKTTPPVLDSDGSFFLYSRLTVDKSRWQEGNVFSCSVMHEALHNHYTQKSLSLSLGK
heavy 2: EVQLVESGGGLVQPGGSLRLSCAASGFTFGSYGMAWVRQAPGKGLEWVSAISGSGDYTNYADSVKRRFTISRDNSKNTLYLQMSSLRAEDTAVYYCAKEKTGTTGYLYSGMDVWGQGTTVTVSSASTKGPSVFPLAPCSRSTSESTAALGCLVKDYFPEPVTVSWNSGALTSGVHTFPAVLQSSGLYSLSSVVTVPSSSLGTKTYTCNVDHKPSNTKVDKRVESKYGPPCPPCPAPGGGGPSVFLFPPKPKDTLMISRTPEVTCVVVDVSQEDPEVQFNWYVDGVEVHNAKTKPREEQFNSTYRVVSVLTVLHQDWLNGKEYKCKVSNKGLPSSIEKTISKAKGQPREPQVYTLPPSQEEMTKNQVSLTCLVKGFYPSDIAVEWESNGQPENNYKTTPPVLDSDGSFFLYSRLTVDKSRWQEGNVFSCSVMHEALHNRFTQKSLSLSPGK
light: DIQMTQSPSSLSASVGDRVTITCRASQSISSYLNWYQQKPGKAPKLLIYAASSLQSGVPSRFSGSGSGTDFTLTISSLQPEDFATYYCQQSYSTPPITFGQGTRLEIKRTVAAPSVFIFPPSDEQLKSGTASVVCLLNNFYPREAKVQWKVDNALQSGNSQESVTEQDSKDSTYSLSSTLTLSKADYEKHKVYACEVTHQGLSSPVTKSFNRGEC
notes: D1 arm from 21519P2, D2 arm from 21520P2, common light chain; also called CD40xCD40 (21519 x 21520)
With B1 the “% max blockade relative to no mAb, IL-10, donor 1” value [1] was 74.2%, the “% max blockade relative to no mAb, IL-10, donor 2” value [1] was 91.4% and the “% max blockade relative to no mAb, IL-10, donor 3” value [1] was 92.4%. The “% max blockade relative to no mAb, TNFa, donor 1” value [2] was 44%, the “% max blockade relative to no mAb, TNFa, donor 2” value [2] was 63.5% and the “% max blockade relative to no mAb, TNFa, donor 3” value [2] was 68.5%. The “IC50, 10 nM hCD40L, THP-1 NFkB-luc” value [3] was 553 pM, the “Max % activation, no ligand, THP-1 NFkB-luc” value [3] was 1% and the “Max % inhibition, 10 nM hCD40L, THP-1 NFkB-luc” value [3] was 98%. For the same binder, the “IC50, 900 pM hCD40L, Raji NFkB-luc” value [4] was 5.76e-11 M, the “Max % activation, no ligand, Raji NFkB-luc” value [4] was 13% and the “Max % inhibition, 900 pM hCD40L, Raji NFkB-luc” value [4] was 113%. The EC50 [5] was 9.1 nM, the “MFI at 100 nM” value [5] was 41700 MFI and the “% max blockade relative to no mAb, TNFa, assay #2 donor 1” value [6] was 62.8%. For the same binder, the “% max blockade relative to no mAb, TNFa, assay #2 donor 2” value [6] was 51.1%, the “% max blockade relative to no mAb, IL-10, assay #2 donor 1” value [7] was 87.7% and the “% max blockade relative to no mAb, IL-10, assay #2 donor 2” value [7] was 89.9%. The “% Blocking at 1 uM mAb” value [8] was 98%, the IC50 [8] was 32 nM and the “IC50, 500 pM hCD40L, Ramos NFkB-luc” value [9] was 6.93e-11 M. For the same binder, the “Max % activation, no ligand, Ramos NFkB-luc” value [9] was 6%, the “Max % inhibition, 500 pM hCD40L, Ramos NFkB-luc” value [9] was 91% and the “% max blockade relative to no mAb, IL-6, donor 1” value [10] was 84.5%. For the same binder, the “% max blockade relative to no mAb, IL-6, donor 2” value [10] was 92%, the “% max blockade relative to no mAb, IL-6, donor 3” value [10] was 92% and the EC50 [11] was 2 nM. The “MFI at 100 nM” value [11] was 29000 MFI, the “% max blockade relative to no mAb, IL-6, assay #2 donor 1” value [12] was 88.9% and the “% max blockade relative to no mAb, IL-6, assay #2 donor 2” value [12] was 89.2%. For the same binder, the EC50 [13] was 2 nM and the “MFI at 100 nM” value [13] was 3760 MFI.

B2: REGN16335 (bispecific antibody, human IgG4 S228P, kappa)
heavy 1: EVQLVESGGGLVQPGGSLRLSCAASGFTFSSYAMNWVRQAPGKGLEWVSIISGTIGKTYYADSVKGRFTISRDNSKNTLYLQMNSLRGEDTAVYYCAKDTERDITGSPFDYWGQGTLVTVSSASTKGPSVFPLAPCSRSTSESTAALGCLVKDYFPEPVTVSWNSGALTSGVHTFPAVLQSSGLYSLSSVVTVPSSSLGTKTYTCNVDHKPSNTKVDKRVESKYGPPCPPCPAPGGGGPSVFLFPPKPKDTLMISRTPEVTCVVVDVSQEDPEVQFNWYVDGVEVHNAKTKPREEQFNSTYRVVSVLTVLHQDWLNGKEYKCKVSNKGLPSSIEKTISKAKGQPREPQVYTLPPSQEEMTKNQVSLTCLVKGFYPSDIAVEWESNGQPENNYKTTPPVLDSDGSFFLYSRLTVDKSRWQEGNVFSCSVMHEALHNHYTQKSLSLSLGK
heavy 2: B1 heavy 2
light: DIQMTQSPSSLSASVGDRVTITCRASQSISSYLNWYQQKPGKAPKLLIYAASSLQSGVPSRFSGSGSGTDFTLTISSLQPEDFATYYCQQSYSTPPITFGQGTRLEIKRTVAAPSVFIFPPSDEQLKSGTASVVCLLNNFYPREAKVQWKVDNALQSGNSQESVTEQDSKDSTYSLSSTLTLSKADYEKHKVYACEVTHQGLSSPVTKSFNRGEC
notes: D1 arm from 30027P2, D2 arm from 21520P2, common light chain; also called CD40xCD40 (30027 x 21520)
For B2, the “% max blockade relative to no mAb, IL-10, donor 1” value [1] was 78.5%, the “% max blockade relative to no mAb, IL-10, donor 2” value [1] was 93.6% and the “% max blockade relative to no mAb, IL-10, donor 3” value [1] was 89.8%. For the same binder, the “% max blockade relative to no mAb, TNFa, donor 1” value [2] was 45%, the “% max blockade relative to no mAb, TNFa, donor 2” value [2] was 64.7% and the “% max blockade relative to no mAb, TNFa, donor 3” value [2] was 61.6%. The “IC50, 10 nM hCD40L, THP-1 NFkB-luc” value [3] was 221 pM, the “Max % activation, no ligand, THP-1 NFkB-luc” value [3] was 3% and the “Max % inhibition, 10 nM hCD40L, THP-1 NFkB-luc” value [3] was 98%. The “IC50, 900 pM hCD40L, Raji NFkB-luc” value [4] was 4.94e-11 M, the “Max % activation, no ligand, Raji NFkB-luc” value [4] was 9% and the “Max % inhibition, 900 pM hCD40L, Raji NFkB-luc” value [4] was 102%. For the same binder, the EC50 [5] was 2.4 nM, the “MFI at 100 nM” value [5] was 47300 MFI and the “% max blockade relative to no mAb, TNFa, assay #2 donor 1” value [6] was 62.4%. The “% max blockade relative to no mAb, TNFa, assay #2 donor 2” value [6] was 52.5%, the “% max blockade relative to no mAb, IL-10, assay #2 donor 1” value [7] was 88.5% and the “% max blockade relative to no mAb, IL-10, assay #2 donor 2” value [7] was 87.8%. For the same binder, the “% Blocking at 1 uM mAb” value [8] was 96%, the IC50 [8] was 32 nM and the “IC50, 500 pM hCD40L, Ramos NFkB-luc” value [9] was 3.86e-11 M. The “Max % activation, no ligand, Ramos NFkB-luc” value [9] was 5%, the “Max % inhibition, 500 pM hCD40L, Ramos NFkB-luc” value [9] was 93% and the “% max blockade relative to no mAb, IL-6, donor 1” value [10] was 83.2%. The “% max blockade relative to no mAb, IL-6, donor 2” value [10] was 91.4%, the “% max blockade relative to no mAb, IL-6, donor 3” value [10] was 91.4% and the EC50 [11] was 1.6 nM. The “MFI at 100 nM” value [11] was 28900 MFI, the “% max blockade relative to no mAb, IL-6, assay #2 donor 1” value [12] was 88.4% and the “% max blockade relative to no mAb, IL-6, assay #2 donor 2” value [12] was 87%. For the same binder, the EC50 [13] was 1 nM and the “MFI at 100 nM” value [13] was 3750 MFI.
